Source: patent US20170298146A1 (MODIQUEST B V, published 2017)
Non-standard residues stand in square brackets, D forms with d. No end group written: not given here. Cit = NC(=O)NCCC[C@H](N)C(=O)O

Tests used:
[1] = target: T1, Histone 2A citrulline-containing peptide 10 (human, also: biotin label); experiment: peptide ELISA, 10 ug/well
T1 peptide: TRIIP[Cit]HLQLAI
Procedure: (§1) Biotin and citrulline-containing peptides derived from histone 2A were immobilized on NEUTRAVIDIN®-coated 96-well ELISA plates (0.3 μg/well). CFC-1 and CFC-0 were coated at the same concentration and served as positive and negative controls respectively for specific anti-citrulline reactivity and as coating controls. Non-coated wells were used to test for aspecific binding of the antibodies. […] Detection of bound anti-citrulline antibodies was performed by incubating the wells with rabbit-anti-human-HRP (1:2000) for one hour at RT followed by incubation with TMB substrate. The resulting OD (y-axis) is a measure for antibody binding.
(§2) Ninety-six-well ELISA plates were coated with NEUTRAVIDIN® (0.1 μg/well) by overnight incubation at 4° C. Wells were washed five times with PBS-TWEEN®-20 (PBS-T) and blocked by a one-hour incubation with PBS-T+1% Bovine serum albumin (BSA) at room temperature (RT). After five more washes with PBS-T, wells were incubated for one hour at RT with histone-derived citrulline and biotin-containing peptides (0.3 μg/well). […] Wells were washed five times with PBS-T and incubated with rabbit-anti-human-HRP (1:2000) for one hour at RT followed by five washes with PBS-T and three wash steps with PBS. Wells were incubated for five minutes with TMB substrate before stopping the reaction with 2 M H₂SO₄. Optical density was measured by 450 nm and is a measure for the affinity of the antibodies used.

[2] = target: T2, Histone 2A citrulline-containing peptide 11 (human, also: biotin label); experiment: peptide ELISA, 10 ug/well
T2 peptide: LQLAI[Cit]NDEELN
Procedure: as §1, §2

[3] = target: T3, Histone 2A citrulline-containing peptide 5 (human, also: biotin label); experiment: peptide ELISA, 10 ug/well
T3 peptide: VGRVH[Cit]LLRKGN
Procedure: as §1, §2

[4] = target: T4, Histone 2A citrulline-containing peptide 8 (human, also: biotin label); experiment: peptide ELISA, 10 ug/well
T4 peptide: AGNAA[Cit]DNKKTR
Procedure: as §1, §2

[5] = target: T5, Histone 2A citrulline-containing peptide 4 (human, also: biotin label); experiment: peptide ELISA, 10 ug/well
T5 peptide: QFPVG[Cit]VHRLLR
Procedure: as §1, §2

[6] = target: T6, human recombinant histone H4 (human, UniProt P62805 2-103); experiment: ELISA, 0.000128 ug/well
Procedure: (§3) CFC-1 and CFC-0 were coated at the same concentration and served as positive and negative controls, respectively, for specific anti-citrulline reactivity and as coating controls. Non-coated wells were used to test for aspecific binding of the antibodies. […] Detection of bound anti-citrulline antibodies was performed by incubating the wells with rabbit-anti-human-HRP (1:2000) for one hour at RT followed by incubation with TMB substrate. The resulting OD (y-axis) is a measure for antibody binding. H1=recombinant histone 1; H1/p2=huPAD2 recombinant histone 1; H1/p4=huPAD4 recombinant histone 1 and so forth (x-axis).

[7] = target: T7, huPAD2 deiminated human recombinant histone H2B (human); experiment: ELISA, 0.000128 ug/well
T7 construct: also called H2B/p2
Procedure: as §3

huFibα XH = target: T8, huFibα XH (human, X at position 15 is citrulline; biotin label); experiment: peptide ELISA, 2 ug/well
T8 peptide: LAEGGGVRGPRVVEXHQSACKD
Procedure: as §1, with “fibrinogen and vimentin” for “histone 2A”
(§4) Biotin-labeled and citrulline-containing fibrinogen and vimentin peptides (Table 5) were also tested for reactivity with the therapeutic antibodies. Peptides were coated on 96-well NEUTRAVIDIN®-ELISA plates.

huFibα XG = target: T9, huFibα XG (human, X at position 8 is citrulline; biotin label); experiment: peptide ELISA, 2 ug/well
T9 peptide: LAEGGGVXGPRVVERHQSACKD
Procedure: as §1, with “fibrinogen and vimentin” for “histone 2A”
as §4

CFC-1 [8] = target: T10, CFC-1; experiment: peptide ELISA, 2 ug/well
T10 construct: Positive control for anti-citrulline reactivity; also called cfc1 XG
Procedure: as §1, with “fibrinogen and vimentin” for “histone 2A”
as §4

msFibα XG = target: T11, msFibα XG (mouse, X at position 8 is citrulline; biotin label); experiment: peptide ELISA, 2 ug/well
T11 peptide: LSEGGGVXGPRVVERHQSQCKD
Procedure: as §1, with “fibrinogen and vimentin” for “histone 2A”
as §4

msVim XS/XL = target: T12, msVim XS/XL (mouse, also: biotin label); experiment: peptide ELISA, 2 ug/well
T12 construct: also called mouse vimentin peptide
T12 peptide: YVT[Cit]SSAV[Cit]L[Cit]SSVP
Procedure: as §1, with “fibrinogen and vimentin” for “histone 2A”
as §4

msFibα XH = target: T13, msFibα XH (mouse, X at position 15 is citrulline; biotin label); experiment: peptide ELISA, 2 ug/well
T13 peptide: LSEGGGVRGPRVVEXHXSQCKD
Procedure: as §1, with “fibrinogen and vimentin” for “histone 2A”
as §4

msFibβ XG = target: T14, msFibβ XG (mouse, also: biotin label); experiment: peptide ELISA, 2 ug/well
T14 peptide: EPTDSLDA[Cit]GHRPVDRR
Procedure: as §1, with “fibrinogen and vimentin” for “histone 2A”
as §4

[9] = target: T15, human recombinant histone H2A (human); experiment: ELISA, 0.016 ug/well
T15 construct: Non-deiminated
Procedure: as §3

[10] = target: T16, human recombinant histone H2B (human); experiment: ELISA, 0.016 ug/well
T16 construct: Non-deiminated
Procedure: as §3

[11] = target: T6, human recombinant histone H4; experiment: ELISA, 0.016 ug/well
Procedure: as §3

[12] = target: T17, huPAD4 deiminated human recombinant histone H2A (human); experiment: ELISA, 0.016 ug/well
T17 construct: also called H2A/p4; huPAD4 deiminated histone 2A
Procedure: as §3

CFC-1 [13] = target: T10, CFC-1; experiment: ELISA, 0.016 ug/well
Procedure: as §3

[14] = target: T18, huPAD2 deiminated human recombinant histone H2A (human); experiment: ELISA, 0.016 ug/well
T18 construct: also called H2A/p2
Procedure: as §3

[15] = target: T7, huPAD2 deiminated human recombinant …; experiment: ELISA, 0.016 ug/well
Procedure: as §3

[16] = target: T19, huPAD4 deiminated human recombinant histone H2B (human); experiment: ELISA, 0.016 ug/well
T19 construct: also called H2B/p4
Procedure: as §3

[17] = target: T20, huPAD2 deiminated human recombinant histone H3 (human); experiment: ELISA, 0.016 ug/well
T20 construct: also called H3/p2
Procedure: as §3

[18] = target: T21, huPAD4 deiminated human recombinant histone H3 (human); experiment: ELISA, 0.016 ug/well
T21 construct: also called H3/p4
Procedure: as §3

B1: RhmAb2.102 (antibody, human IgG1, lambda)
heavy: not shown
light: QSVLTQPPSMSAAPGQKVTISCSGSSSNIGNNYVSWYQQVPGTAPKLLIYDDNKRPSGIPGRFSGSKSATSATLGITGLQAGDEADYYCGSWDDNLSVVLFGGGTKLTVLGQPKAAPSVTLFPPSSEELQANKATLVCLISDFYPGAVTVAWKADSSPVKAGVETTTPSKQSNNKYAASSYLSLTPEQWKSHRSYSCQVTHEGSTVEKTVAPTECS
notes: Human IgG1 lambda; also called Rhm2.102
Binder B1 has an OD [1] of 0.091 OD, an OD [2] of 0.088 OD and an OD [3] of 0.239 OD. It also gave an OD [4] of 0.082 OD, an OD [5] of 2.06 OD and an OD [6] of 0.06 OD. For the same binder, the OD [7] was 0.051 OD, the OD (huFibα XH) was 0.116 OD and the OD (huFibα XG) was 1.51 OD. It also gave an OD (CFC-1 [8]) of 3.97 OD, an OD (msFibα XG) of 1.9 OD and an OD (msVim XS/XL) of 2.77 OD. For the same binder, the OD (msFibα XH) was 0.091 OD, the OD (msFibβ XG) was 3.15 OD and the OD [9] was 0.057 OD. It also gave an OD [10] of 0.065 OD, an OD [11] of 0.061 OD and an OD [12] of 0.426 OD. The OD (CFC-1 [13]) was 0.702 OD, the OD [14] was 0.628 OD and the OD [15] was 0.052 OD. It also gave an OD [16] of 0.052 OD, an OD [17] of 0.155 OD and an OD [18] of 0.076 OD.
